Biological target: ADHA, alcohol dehydrogenase from Candida magnoliae DSMZ 70638, wild type (Candida magnoliae DSMZ 70638)
Assay: crystal structure; purified enzyme, sitting drop, 20% w/v PEG 3350, 0.2 M sodium citrate; with or without 1 mM NADP+; quaternary structure seen in the crystal

- stoichiometry N: 4
Substance: ADHA, alcohol dehydrogenase from Candida magnoliae DSMZ 70638, wild type (enzyme)
